According to publication PMC7904477 (Journal of the American Chemical Society, 2020):

T1: wt α2 (subunit α2 of E. coli class Ia ribonucleotide reductase) (E. coli, UniProt P00452 1-761)
T1 sequence (looked up): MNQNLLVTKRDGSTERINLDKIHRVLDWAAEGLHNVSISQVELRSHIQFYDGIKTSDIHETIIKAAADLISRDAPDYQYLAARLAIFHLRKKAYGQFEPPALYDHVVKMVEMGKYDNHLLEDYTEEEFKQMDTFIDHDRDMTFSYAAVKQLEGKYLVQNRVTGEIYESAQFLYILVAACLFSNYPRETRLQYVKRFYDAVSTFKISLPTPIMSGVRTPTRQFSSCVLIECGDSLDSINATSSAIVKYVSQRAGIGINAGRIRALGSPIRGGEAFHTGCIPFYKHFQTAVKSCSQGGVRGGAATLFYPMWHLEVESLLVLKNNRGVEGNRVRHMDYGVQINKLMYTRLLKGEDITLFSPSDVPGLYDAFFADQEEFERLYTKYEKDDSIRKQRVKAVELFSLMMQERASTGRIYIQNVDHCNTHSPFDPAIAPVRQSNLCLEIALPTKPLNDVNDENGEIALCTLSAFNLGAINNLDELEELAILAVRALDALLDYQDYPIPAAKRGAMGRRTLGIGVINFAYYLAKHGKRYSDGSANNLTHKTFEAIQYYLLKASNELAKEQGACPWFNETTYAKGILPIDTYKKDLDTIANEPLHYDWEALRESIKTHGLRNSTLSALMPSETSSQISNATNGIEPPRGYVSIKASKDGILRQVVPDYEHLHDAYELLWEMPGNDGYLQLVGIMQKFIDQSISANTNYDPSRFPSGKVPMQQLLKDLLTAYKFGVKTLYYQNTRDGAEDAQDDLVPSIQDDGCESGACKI


Target: T1, wt α2 (subunit α2 of E. coli class Ia …)
Test: competitive inhibition assay

| Binder | binding result | Kd [nM] |
| --- | --- | --- |
| wt β2 (subunit β2 of E. coli class Ia ribonucleotide reductase) (enzyme, UniProt P69924 1-376, looked up, diferric-tyrosyl radical cofactor (Y122•), reconstitution yield of 1.1 Y•/β2) MAYTTFSQTKNDQLKEPMFFGQPVNVARYDQQKYDIFEKLIEKQLSFFWRPEEVDVSRDRIDYQALPEHEKHIFISNLKYQTLLDSIQGRSPNVALLPLISIPELETWVETWAFSETIHSRSYTHIIRNIVNDPSVVFDDIVTNEQIQKRAEGISSYYDELIEMTSYWHLLGEGTHTVNGKTVTVSLRELKKKLYLCLMSVNALEAIRFYVSFACSFAFAERELMEGNAKIIRLIARDEALHLTGTQHMLNLLRSGADDPEMAEIAEECKQECYDLFVQAAQQEKDWADYLFRDGSMIGLNKDILCQYVEYITNIRMQAVGLDLPFQTRSNPIPWINTWLVSDNVQVAPQEVEVSSYLVGQIDSEVDTDDLSNFQL | binds | – |
| E52Q-photoβ2 (E52Q/C268S/C305S/S355C-β2 of E. coli class Ia ribonucleotide reductase, labelled with the [Re] photooxidant at C355) (enzyme, UniProt P69924 1-376, looked up, [Re] photooxidant (tricarbonyl(1,10-phenanthroline)-4-thiomethylpyridine rhenium) covalently ligated to C355 (S355C); endogenous Y122• reduced) MAYTTFSQTKNDQLKEPMFFGQPVNVARYDQQKYDIFEKLIEKQLSFFWRPEQVDVSRDRIDYQALPEHEKHIFISNLKYQTLLDSIQGRSPNVALLPLISIPELETWVETWAFSETIHSRSYTHIIRNIVNDPSVVFDDIVTNEQIQKRAEGISSYYDELIEMTSYWHLLGEGTHTVNGKTVTVSLRELKKKLYLCLMSVNALEAIRFYVSFACSFAFAERELMEGNAKIIRLIARDEALHLTGTQHMLNLLRSGADDPEMAEIAEESKQECYDLFVQAAQQEKDWADYLFRDGSMIGLNKDILSQYVEYITNIRMQAVGLDLPFQTRSNPIPWINTWLVSDNVQVAPQEVEVSCYLVGQIDSEVDTDDLSNFQL | – | 1060 |
